Patent publication US11208638

Key:
[1] = target: Cas9 alpha-helical lobe (Streptococcus pyogenes) (UniProt Q99ZW2); assay: filter; details: 5 mM MgCl2, RT
[2] = target: dCas9 D10A,H840A (Streptococcus pyogenes) (UniProt Q99ZW2); assay: EMSA; details: 5 mM MgCl2, heparin, RT; PAM NGG
[3] = system: split-dCas9 (alpha-helical lobe + dNuclease lobe) D10A,H840A (Streptococcus pyogenes); assay: EMSA; details: apparent; complex dissociation contributes; 5 mM MgCl2, heparin; PAM NGG
[4] = target: Cas9 nuclease lobe (Streptococcus pyogenes) (UniProt Q99ZW2); assay: filter
[5] = system: split-Cas9 (alpha-helical lobe + nuclease lobe) (Streptococcus pyogenes); assay: cell_activity; details: HEK293T nucleofected RNP, nocodazole synchronized; 0.6% unsynchronized; WT 34% and 22%

## delta-spacer-nexus sgRNA
[1]
  Kd: > 0.1 µM

## full-length sgRNA ; target dsDNA (55 bp, with PAM)
[2]
  Kd: 0.0002 µM
[3]
  Kd: 0.7 µM

## full-length sgRNA
[4]; Example 1, p568 gives range 0.2-0.8 nM
  Kd: 0.0005 µM

## delta-hairpins1-2 sgRNA
[4]; 5 mM MgCl2, RT
  Kd: > 0.1 µM

## EMX1 sgRNA ; EMX1 locus target
[5]
  activity: < 2 % indels
